The data set is described as follows: protein stability index of a GFP-peptide fusion (yeast GPS) (PSI 1-4); higher = more stable; sorted into four equal gates, so the index is relative within each strain. In short, it runs like this:
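Tiled yeast protein peptides of 17 residues were each joined downstream of GFP, on plasmids that also express Cherry. The pooled library was maintained in yeast, and mid-log cultures in leucine-free medium were sorted into four equal gates on the GFP/Cherry ratio. Plasmids from every gate were amplified by PCR and sequenced on Illumina, with barcodes linking reads to strains. The protein stability index of a peptide is its gate-number-weighted read frequency summed over the gates.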

± gives the uncertainty stated by the source.

PTTTTGGLFGNSAQNNS [YGR119C/NUP57] returned a protein stability index (doa10∆) of 3.11 ± 0.071, a protein stability index (pdr5∆) of 3.18 ± 0.097, a protein stability index (san1∆) of 3 ± 0.062 and a protein stability index (ubr1∆) of 3.24 ± 0.054.

Consider PVDVDFNLDLDDIVSHQ [REC8], for which the protein stability index (pdr5∆) was found to be 3.4 ± 0.12.

With PVPESAGKADTSIRLEG [SRB4], the protein stability index reads like this: (doa10∆) 2.96 ± 0.062; (pdr5∆) 3.19 ± 0.079; (san1∆) 2.95 ± 0.055; (ubr1∆) 3.06 ± 0.045.

On to PVSLLNSQLVGKPHFSL [PCI8], for which the protein stability index reads like this: (doa10∆) 2.1 ± 0.084; (pdr5∆) 2.37 ± 0.074; (san1∆) 1.88 ± 0.21; (ubr1∆) 2.21 ± 0.052.

In turn, PVSPLDIYSDEASAQKK [RPS2] yielded a protein stability index (doa10∆) of 2.74 ± 0.095, a protein stability index (pdr5∆) of 2.93 ± 0.093, a protein stability index (san1∆) of 3.02 ± 0.075 and a protein stability index (ubr1∆) of 3.02 ± 0.06.

PVVINLDAKNKVFVPPK [RPO31]: the protein stability index (doa10∆) worked out at 2.93 ± 0.12, the protein stability index (pdr5∆) turned out to be 3.13 ± 0.13, the protein stability index (san1∆) was determined as 3.33 ± 0.11 and the protein stability index (ubr1∆) was determined as 2.95 ± 0.15.

For PWGDYLQLETPAEVGRA [BRR2], the protein stability index reads like this: (doa10∆) 1.25 ± 0.062; (pdr5∆) 1.8 ± 0.09; (san1∆) 1.47 ± 0.088; (ubr1∆) 1.19 ± 0.049.

As to PYAQKPLQGIFHNAVFN [QCR8], the protein stability index runs as follows: (doa10∆) 2.75 ± 0.057; (pdr5∆) 2.52 ± 0.046; (san1∆) 2.35 ± 0.045; (ubr1∆) 2.57 ± 0.038.

With PYDSNNSNTNLNSLSPQ [SWI1], the protein stability index was determined as 2.96 ± 0.049 (doa10∆), 2.87 ± 0.051 (pdr5∆), 2.76 ± 0.054 (san1∆) and 2.79 ± 0.04 (ubr1∆).

Consider PYLLPYILEAEAAAKEK [QCR7], for which the protein stability index is, setting by setting: (doa10∆) 1.39 ± 0.07; (pdr5∆) 1.26 ± 0.062; (san1∆) 1.5 ± 0.11; (ubr1∆) 1.19 ± 0.053.

PYPGSPMHSIMPNSSLQ [DSN1]: the protein stability index worked out at 2.85 ± 0.091 (doa10∆), 2.88 ± 0.052 (pdr5∆), 2.63 ± 0.057 (san1∆) and 2.83 ± 0.034 (ubr1∆).

On to PYPKSRYNRAVPDSKIR [RPL10], for which the protein stability index reads like this: (doa10∆) 3.03 ± 0.049; (pdr5∆) 3.19 ± 0.052; (san1∆) 3.05 ± 0.043; (ubr1∆) 3.04 ± 0.048.

The sequence QAIAKNNPQVVNAITVA [SNF5] gave a protein stability index (doa10∆) of 1.85 ± 0.039, a protein stability index (pdr5∆) of 2.02 ± 0.043, a protein stability index (san1∆) of 1.63 ± 0.05 and a protein stability index (ubr1∆) of 1.61 ± 0.036.

Take QAINLGQVVLTPLTFAL [RPL14A]: the protein stability index runs as follows: (doa10∆) 1.53 ± 0.065; (pdr5∆) 1.43 ± 0.049; (san1∆) 1.25 ± 0.09; (ubr1∆) 1.35 ± 0.067.

Consider QAQAQAHAQHQPSQQPQ [GAL11], for which the protein stability index by setting is: (doa10∆) 2.967 ± 0.022; (pdr5∆) 2.972 ± 0.019; (san1∆) 2.974 ± 0.022; (ubr1∆) 3.028 ± 0.018.

With QARMMQQQSADHDDSTD [NSL1], the protein stability index worked out at 2.76 ± 0.051 (doa10∆), 2.74 ± 0.058 (pdr5∆), 2.62 ± 0.052 (san1∆) and 2.76 ± 0.039 (ubr1∆).

Regarding QAVETVGQAGRPKKITG [RPN1], the protein stability index was determined as 1.99 ± 0.06 (doa10∆), 2.74 ± 0.095 (pdr5∆), 2.31 ± 0.12 (san1∆) and 2.45 ± 0.056 (ubr1∆).

For the sequence QDHFHRLNYLYQISAYQ [RPR2], the protein stability index stood at 2 ± 0.041 (doa10∆), 2.43 ± 0.04 (pdr5∆), 2.42 ± 0.044 (san1∆) and 2.43 ± 0.026 (ubr1∆).

Consider QDKSKKIMNVTTDSLTK [YMR129W/POM152], for which the protein stability index stood at 3.25 ± 0.064 (doa10∆), 2.97 ± 0.06 (pdr5∆), 3.1 ± 0.034 (san1∆) and 3.21 ± 0.044 (ubr1∆).

Consider QDNKQLYQIWIVMVWLK [YDL116W/NUP84], for which the protein stability index stood at 2.62 ± 0.058 (doa10∆), 2.62 ± 0.049 (pdr5∆), 3.02 ± 0.065 (san1∆) and 2.78 ± 0.031 (ubr1∆).

Take QDRIQDVKLVLASNFDN [MED1]: the protein stability index (doa10∆) was 2.56 ± 0.057, the protein stability index (pdr5∆) stood at 2.67 ± 0.06, the protein stability index (san1∆) came to 1.88 ± 0.08 and the protein stability index (ubr1∆) is 2.21 ± 0.036.

For QDSTSENVKIINYLLTL [RPN2], the protein stability index by setting is: (doa10∆) 3.42 ± 0.074; (pdr5∆) 3.1 ± 0.079; (san1∆) 3.16 ± 0.071; (ubr1∆) 2.9 ± 0.12.

Take QEASQVTFIFGELKRGN [MED11]: the protein stability index reads like this: (doa10∆) 2.07 ± 0.062; (pdr5∆) 2.75 ± 0.052; (san1∆) 2.75 ± 0.066; (ubr1∆) 2.6 ± 0.043.

QEEEGELEHLTKKSKLE [DSN1] came in with a protein stability index (doa10∆) of 3.02 ± 0.053, a protein stability index (pdr5∆) of 3.17 ± 0.056, a protein stability index (san1∆) of 3.14 ± 0.043 and a protein stability index (ubr1∆) of 3.18 ± 0.043.

With QELELPGEFVTAIAHSI [SNF5], the protein stability index was 2.36 ± 0.049 (doa10∆), 2.37 ± 0.038 (pdr5∆), 2.38 ± 0.038 (san1∆) and 2.4 ± 0.043 (ubr1∆).

With QENSSKIITLDLSNYAE [SMC1], the protein stability index was 3.13 ± 0.1 (doa10∆), 3.34 ± 0.053 (pdr5∆), 3.1 ± 0.054 (san1∆) and 3.13 ± 0.044 (ubr1∆).

Turning to QEPELSLDQGDAEEDSQ [SMC4], the protein stability index is, setting by setting: (doa10∆) 3.45 ± 0.16; (ubr1∆) 3.02 ± 0.14.

The values above are taken from the supplement of paper PMC9732359.
